Molecular target: P622-G772A/S773A (ADGRG2-P622 with G772 and S773 of the ECL2 changed to alanine) (human) (UniProt Q8IZP9)
UniProt Q8IZP9, sequence (Q8IZP9 622-1017 G772A/S773A): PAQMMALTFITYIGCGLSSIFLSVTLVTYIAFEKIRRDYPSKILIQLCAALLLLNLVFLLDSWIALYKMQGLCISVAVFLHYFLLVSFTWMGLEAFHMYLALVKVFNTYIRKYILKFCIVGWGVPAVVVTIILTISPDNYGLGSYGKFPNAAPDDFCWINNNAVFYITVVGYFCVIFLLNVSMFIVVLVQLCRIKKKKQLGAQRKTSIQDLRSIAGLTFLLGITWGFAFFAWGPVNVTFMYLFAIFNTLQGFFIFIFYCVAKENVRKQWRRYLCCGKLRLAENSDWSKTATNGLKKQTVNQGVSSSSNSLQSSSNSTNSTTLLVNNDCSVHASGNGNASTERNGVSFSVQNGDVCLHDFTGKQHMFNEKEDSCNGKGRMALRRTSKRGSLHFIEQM

CRE-luciferase reporter response to P-15, reduction against P622-CWI: 30% | SRE-luciferase reporter response to P-15, reduction against P622-CWI: 40%
Substance: synthetic P-15 (15-amino acid long Stachel peptide of ADGRG2)

— article PMC8263569
